The text below walks through data of patent US11708423B2, “Chimeric engulfment receptor molecules and methods of use” (CERO THERAPEUTICS, INC., priority 2017, dated 2023).

The test system of the assay is SCC152 cells. Briefly: Magnitude breadth of phagocytosis by CER-transduced CD4+ T cells. Type of assay: cell-based, human. The settings on record: 8 hours co-culture with CD8/E7 TCR T cells and SCC152 cells. On the procedure: Various CER-modified CD4+ T cells were also evaluated for breadth of response to determine whether a particular CER confers a broad phagocytic response of low magnitude (e.g., 10% engulfment in 90% of cells) or a less frequent but strong phagocytic response (e.g., 90% engulfment in 10% of cells) in the host cells. CD8+ T cells were transduced with HPV16 E7 specific TCR as described in Example 5. CD4+ T cells were transduced with lentiviral vectors comprising a CER21, CER27, CER104, CER116, or CER117 nucleic acid. Mock-transduced (vector alone) CD4+ T cell were used as control. CD4+/CER+ and CD8+/E7 TCR+ T cells were stained with CELLTRACE violet. […] HPV16 E7 TCR transduced CD8+ T cells and selected CER transduced CD4+ T cells were mixed at a 1:1 ratio and co-cultured with SCC152 cells at a 1:1 ratio for 8 hours. Phagocytosis of target SCC152 cells by CER-transduced CD4+ T cells was analyzed by fluorescence microscopy. […] The horizontal axis represents the % area of CER-transduced CD4+ T cells having engulfment or % area of […]. This measure was rarely above 40% across CER types tested. The vertical axis represents the proportion of CER-transduced CD4+ T cells that were phagocytic. For CER104, about 20% of CER104-transduced CD4+ T cells have more than 10% engulfment. For CER117-transduced CD4+ T cells, less than 10% have more than 10% engulfment.

B1: CER104: Tim4 binding and transmembrane domains, TLR8 primary and DAP12 secondary signaling domains; SEQ ID NO:133 (protein)
chain: MSKGLLLLWLVTELWWLYLTPAASEDTIIGFLGQPVTLPCHYLSWSQSRNSMCWGKGSCPNSKCNAELLRTDGTRIISRKSTKYTLLGKVQFGEVSLTISNTNRGDSGVYCCRIEVPGWFNDVKKNVRLELRRATTTKKPTTTTRPTTTPYVTTTTPELLPTTVMTTSVLPTTTPPQTLATTAFSTAVTTCPSTTPGSFSQETTKGSAFTTESETLPASNHSQRSMMTISTDIAVLRPTGSNPGILPSTSQLTTQKTTLTTSESLQKTTKSHQINSRQTILIIACCVGFVLMVLLFLAFLHHLFYWDVWFIYNVCLAKVKGYRSLSTSQTFYDAYISYDTKDASVTDWVINELRYHLEESRDKNVLLCLEERDWDPGLAIIDNLMQSINQSKKTVFVLTKKYAKSWNFKTAFYLALQRLMDENMDVIIFILLEPVLQHSQYLRLRQRICKSSILQWPDNPKAEGLFWQTLRNVVLTENDSRYNNMYVDSIKQYYFLGRLVPRGRGAAEAATRKQRITETESPYQELQGQRSDVYSDLNTQRPYYK
modifications: CER104 protein
On to B1, for which the “proportion of CER-transduced CD4+ T cells that have more than 10% engulfment” value is “about 20%”.
